Legend:
[1] = target: the molecule itself; experiment: cryo-EM structure; helical filaments of 4 uM ScDmc1 on 150-mer ssDNA (presynaptic) or after strand exchange with 150-bp dsDNA and 0.4 uM Hop2-Mnd1 (postsynaptic); 35 mM Tris-HCl pH 7.5, 96 mM KCl, 2 mM ATP, 5 mM CaCl2, 1 mM DTT, 37°C
[2] = target: T1, hRAD51 wt (Homo sapiens (human), UniProt Q06609 1-339); experiment: cryo-EM; 4 mM AMP-PNP, 4 mM Mg2+, RS-1; presynaptic complex; hRAD51: 25 mM HEPES pH 7.5, 25 mM KCl, 4 mM MgCl2, 4 mM AMP-PNP, 37 C; ScDmc1: 35 mM Tris-HCl pH 7.5, 96 mM KCl, 2 mM ATP, 5 mM CaCl2, 1 mM DTT, 37 C. Strand-exchange/smFRET activity assays and MM-GBSA energies not listed.; conditions: protein: recombinant; chain copies: 10
[3] = target: T2, ScDmc1 wt (UniProt P25453 1-334); experiment: cryo-EM; 2 mM ATP, 5 mM Ca2+; presynaptic complex; hRAD51: 25 mM HEPES pH 7.5, 25 mM KCl, 4 mM MgCl2, 4 mM AMP-PNP, 37 C; ScDmc1: 35 mM Tris-HCl pH 7.5, 96 mM KCl, 2 mM ATP, 5 mM CaCl2, 1 mM DTT, 37 C. Strand-exchange/smFRET activity assays and MM-GBSA energies not listed.; conditions: protein: recombinant; tags: His6
T2 sequence: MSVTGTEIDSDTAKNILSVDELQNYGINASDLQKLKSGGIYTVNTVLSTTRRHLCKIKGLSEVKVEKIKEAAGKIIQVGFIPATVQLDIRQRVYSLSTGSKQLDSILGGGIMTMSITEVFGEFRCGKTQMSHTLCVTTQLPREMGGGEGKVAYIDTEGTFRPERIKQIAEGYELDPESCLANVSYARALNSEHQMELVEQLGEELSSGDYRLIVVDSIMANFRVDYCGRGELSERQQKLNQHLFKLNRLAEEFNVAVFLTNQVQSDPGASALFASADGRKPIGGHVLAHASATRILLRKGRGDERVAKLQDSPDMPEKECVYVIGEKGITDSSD

[4] = target: hRAD51 273-PG-274 (Homo sapiens (human), UniProt Q06609 1-339, V273P;D274G); experiment: cryo-EM; AMP-PNP, Mg2+, Hop2-Mnd1 added, no RS-1; postsynaptic complex; hRAD51: 25 mM HEPES pH 7.5, 25 mM KCl, 4 mM MgCl2, 4 mM AMP-PNP, 37 C; ScDmc1: 35 mM Tris-HCl pH 7.5, 96 mM KCl, 2 mM ATP, 5 mM CaCl2, 1 mM DTT, 37 C. Strand-exchange/smFRET activity assays and MM-GBSA energies not listed.; conditions: protein: recombinant; chain copies: 16; blunt
[5] = target: T1, hRAD51 wt; experiment: cryo-EM; AMP-PNP, Mg2+, Hop2-Mnd1 added to trigger exchange, no RS-1; postsynaptic complex; hRAD51: 25 mM HEPES pH 7.5, 25 mM KCl, 4 mM MgCl2, 4 mM AMP-PNP, 37 C; ScDmc1: 35 mM Tris-HCl pH 7.5, 96 mM KCl, 2 mM ATP, 5 mM CaCl2, 1 mM DTT, 37 C. Strand-exchange/smFRET activity assays and MM-GBSA energies not listed.; conditions: protein: recombinant; chain copies: 16; blunt
[6] = target: T2, ScDmc1 wt; experiment: cryo-EM; 2 mM ATP, 5 mM Ca2+, Hop2-Mnd1 added; postsynaptic complex; hRAD51: 25 mM HEPES pH 7.5, 25 mM KCl, 4 mM MgCl2, 4 mM AMP-PNP, 37 C; ScDmc1: 35 mM Tris-HCl pH 7.5, 96 mM KCl, 2 mM ATP, 5 mM CaCl2, 1 mM DTT, 37 C. Strand-exchange/smFRET activity assays and MM-GBSA energies not listed.; conditions: protein: recombinant; tags: His6; blunt
[7] = target: the molecule itself; experiment: cryo-EM structure; helical filaments of 2 uM hRAD51 on 150-mer ssDNA with 2 uM RS-1 (presynaptic, wt only) or after strand exchange with dsDNA and 0.2 uM Hop2-Mnd1 without RS-1 (postsynaptic, wt and 273-PG-274); 25 mM HEPES pH 7.5, 25 mM KCl, 4 mM MgCl2, 4 mM AMP-PNP, 37°C

B1: yeast Dmc1 wild type (natural protein)
chain: MSVTGTEIDSDTAKNILSVDELQNYGINASDLQKLKSGGIYTVNTVLSTTRRHLCKIKGLSEVKVEKIKEAAGKIIQVGFIPATVQLDIRQRVYSLSTGSKQLDSILGGGIMTMSITEVFGEFRCGKTQMSHTLCVTTQLPREMGGGEGKVAYIDTEGTFRPERIKQIAEGYELDPESCLANVSYARALNSEHQMELVEQLGEELSSGDYRLIVVDSIMANFRVDYCGRGELSERQQKLNQHLFKLNRLAEEFNVAVFLTNQVQSDPGASALFASADGRKPIGGHVLAHASATRILLRKGRGDERVAKLQDSPDMPEKECVYVIGEKGITDSSD
notes: Dmc1 meiotic recombinase, yeast (ScDmc1); wt construct pNRB150, a gift from Dr Zhi Qi; Stood as a helical filament on ssDNA (presynaptic) or dsDNA (postsynaptic) with ATP-Ca2+; The stored protein is named His6-ScDmc1 and no cleavage of the tag is described; also called ScDmc1; ScDmc1 wt; source: E. coli BLR(DE3) plysS (RecA-deficient), purified (Talon beads, Heparin)
B1: binds [1].

B2: 150-mer ssDNA oligo 4 (ssDNA)
DNA: TAAATAAGATAAGGATAATACAAAATAAGTAAATGAATAAACAGAGAAAATAAAGTAAAGGATATAAAAAATGAACATAAAGAATAAGTAAATGAATAAAACATAATAGGAATAAATATAGGAAATGAAATAAAAGAGACATAAATAAGA
B2: binds [2]; binds [3].

B3: 150-bp homologous dsDNA oligo 4/oligo 5 (postsynaptic) (dsDNA)
DNA 1: TAAATAAGATAAGGATAATACAAAATAAGTAAATGAATAAACAGAGAAAATAAAGTAAAGGATATAAAAAATGAACATAAAGAATAAGTAAATGAATAAAACATAATAGGAATAAATATAGGAAATGAAATAAAAGAGACATAAATAAGA
DNA 2: TCTTATTTATGTCTCTTTTATTTCATTTCCTATATTTATTCCTATTATGTTTTATTCATTTACTTATTCTTTATGTTCATTTTTTATATCCTTTACTTTATTTTCTCTGTTTATTCATTTACTTATTTTGTATTATCCTTATCTTATTTA
B3: binds [4]; binds [5]; binds [6].

B4: human RAD51 mutant 273-PG-274 (natural protein)
chain: MAMQMQLEANADTSVEEESFGPQPISRLEQCGINANDVKKLEEAGFHTVEAVAYAPKKELINIKGISEAKADKILAEAAKLVPMGFTTATEFHQRRSEIIQITTGSKELDKLLQGGIETGSITEMFGEFRTGKTQICHTLAVTCQLPIDRGGGEGKAMYIDTEGTFRPERLLAVAERYGLSGSDVLDNVAYARAFNTDHQTQLLYQASAMMVESRYALLIVDSATALYRTDYSGRGELSARQMHLARFLRMLLRLADEFGVAVVITNQVVAQPGGAAMFAADPKKPIGGNIIAHASTTRLYLRKGRGETRICKIYDSPCLPEAEAMFAINADGVGDAKD
notes: RAD51 recombinase, human, with V273 and D274 of Loop2 changed to P and G (the residues of hDMC1); made from the hRAD51 wt construct by point mutation; Stood as a helical filament on dsDNA (postsynaptic complex, without RS-1); Only an EM map is deposited (EMD-31155), no PDB model; also called PG mutant; source: E. coli BLR(DE3) plysS (RecA-deficient), purified as hRAD51 wt
B4: binds [7].
